The values that follow come from the supplement of paper PMC5998384.

Data set [1] relates to HeLa Kyoto. The experiment in a line: thermal stability score vs G1/S (z-score of summed log2 fold changes over temperatures); higher = more thermally stable than in G1/S.
For data set [2], the system named is HeLa Kyoto. The experiment in a line: solubility in G1/S (NP-40 vs SDS abundance) (log2 ratio); higher = more soluble. Particulars: cell cycle stage: G1/S.
In data set [3] the test system is HeLa Kyoto. The experiment in a line: solubility change mitosis vs G1/S (difference of NP-40 vs SDS log2 ratios) (log2 ratio difference); higher = more soluble in mitosis.
Data set [4] concerns HeLa Kyoto. As to the kind of experiment: melting temperature (median over replicates), in situ; higher = more thermally stable.
Where [5] appears, read: cell cycle stage: early G1 (4.5 h after nocodazole release).
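Throughout, for melting temperature (median over replicates), in situ: HeLa Kyoto cells synchronized by double thymidine or nocodazole block, proteins quantified by TMT10plex mass spectrometry, three independent biological replicates.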
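Throughout, for solubility change mitosis vs G1/S (difference of NP-40 vs SDS log2 ratios): synchronized HeLa Kyoto cells (double thymidine block for G1/S, nocodazole release for mitosis), protein amounts in NP-40 versus SDS lysates quantified by mass spectrometry, three biological replicates.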
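Throughout, for solubility in G1/S (NP-40 vs SDS abundance): HeLa Kyoto cells arrested at G1/S by double thymidine block, proteins quantified by TMT10plex mass spectrometry in mild NP-40 versus SDS extracts, three biological replicates.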
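Throughout, for thermal stability score vs G1/S (z-score of summed log2 fold changes over temperatures): synchronized HeLa Kyoto cells, proteins quantified by TMT10plex mass spectrometry, three biological replicates, mitosis taken 0.5 h after nocodazole release, G1/S directly after double thymidine block.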

“MAVAGAVSGEPLVHWCTQQLRKTFGLDVSEEIIQYVLSIESAEEIREYVTDLLQGNEGKKGQFIEELITKWQKNDQELISDPLQQCFKKDEILDGQKSGDHLKRGRKKGRNRQEVPAFTEPDTTAEVKTPFDLAKAQENSNSVKKKTKFVNLYTREGQDRLAVLLPGRHPCDCLGQKHKLINNCLICGRIVCEQEGSGPCLFCGTLVCTHEEQDILQRDSNKSQKLLKKLMSGVENSGKVDISTKDLLPHQELRIKSGLEKAIKHKDKLLEFDRTSIRRTQVIDDESDYFASDSNQWLSKLERETLQKREEELRELRHASRLSKKVTIDFAGRKILEEENSLAEYHSRLDETIQAIANGTLNQPLTKLDRSSEEPLGVLVNPNMYQSPPQWVDHTGAASQKKAFRSSGFGLEFNSFQHQLRIQDQEFQEGFDGGWCLSVHQPWASLLVRGIKRVEGRSWYTPHRGRLWIAATAKKPSPQEVSELQATYRLLRGKDVEFPNDYPSGCLLGCVDLIDCLSQKQFKEQFPDISQESDSPFVFICKNPQEMVVKFPIKGNPKIWKLDSKIHQGAKKGLMKQNKAV [TRIP4]”: the thermal stability score came out at 1.04 with HeLa Kyoto [1] (setting [5]) and 0.759 in the data set on HeLa Kyoto [1] (cell cycle stage: mitosis). Further, the “solubility in G1/S (log2)” value with HeLa Kyoto [2] is -0.111. Moreover, in the data set on HeLa Kyoto [3], the “solubility change mitosis (log2)” value was -0.0219. Besides, the melting temperature came to 50.6 °C in the data set on HeLa Kyoto [4] (cell cycle stage: G1/S) and 49.4 °C with HeLa Kyoto [4] (cell cycle stage: mitosis).
“MAVATAAAVLAALGGALWLAARRFVGPRVQRLRRGGDPGLMHGKTVLITGANSGLGRATAAELLRLGARVIMGCRDRARAEEAAGQLRRELRQAAECGPEPGVSGVGELIVRELDLASLRSVRAFCQEMLQEEPRLDVLINNAGIFQCPYMKTEDGFEMQFGVNHLGHFLLTNLLLGLLKSSAPSRIVVVSSKLYKYGDINFDDLNSEQSYNKSFCYSRSKLANILFTRELARRLEGTNVTVNVLHPGIVRTNLGRHIHIPLLVKPLFNLVSWAFFKTPVEGAQTSIYLASSPEVEGVSGRYFGDCKEEELLPKAMDESVARKLWDISEVMVGLLK [RDH14]”: the thermal stability score is 0.98 in the data set on HeLa Kyoto [1] (setting [5]) and 0.294 with HeLa Kyoto [1] (cell cycle stage: mitosis). In addition, in the data set with HeLa Kyoto [2], the “solubility in G1/S (log2)” value is -0.158. In addition, the “solubility change mitosis (log2)” value with HeLa Kyoto [3] stood at 0.0299. The results for the melting temperature with HeLa Kyoto [4] (cell cycle stage: G1/S) and in the data set on HeLa Kyoto [4] (cell cycle stage: mitosis) were 51.8 °C and 51.6 °C, respectively.
Take “MAVESRVTQEEIKKEPEKPIDREKTCPLLLRVFTTNNGRHHRMDEFSRGNVPSSELQIYTWMDATLKELTSLVKEVYPEARKKGTHFNFAIVFTDVKRPGYRVKEIGSTMSGRKGTDDSMTLQSQKFQIGDYLDIAITPPNRAPPPSGRMRPY [SAP18]”: the figures for the thermal stability score in the data set with HeLa Kyoto [1] (setting [5]) and in the data set with HeLa Kyoto [1] (cell cycle stage: mitosis) were 0.467 and 3.26, respectively. Further, the “solubility in G1/S (log2)” value with HeLa Kyoto [2] is -0.67. Besides, the “solubility change mitosis (log2)” value in the data set on HeLa Kyoto [3] is 0.699. Moreover, the melting temperature was 47.5 °C in the data set on HeLa Kyoto [4] (cell cycle stage: G1/S) and 49.7 °C in the data set with HeLa Kyoto [4] (cell cycle stage: mitosis).
Turning to “MAVETLSPDWEFDRVDDGSQKIHAEVQLKNYGKFLEEYTSQLRRIEDALDDSIGDVWDFNLDPIALKLLPYEQSSLLELIKTENKVLNKVITVYAALCCEIKKLKYEAETKFYNGLLFYGEGATDASMVEGDCQIQMGRFISFLQELSCFVTRCYEVVMNVVHQLAALYISNKIAPKIIETTGVHFQTMYEHLGELLTVLLTLDEIIDNHITLKDHWTMYKRLLKSVHHNPSKFGIQEEKLKPFEKFLLKLEGQLLDGMIFQACIEQQFDSLNGGVSVSKNSTFAEEFAHSIRSIFANVEAKLGEPSEIDQRDKYVGICGLFVLHFQIFRTIDKKFYKSLLDICKKVPAITLTANIIWFPDNFLIQKIPAAAKLLDRKSLQAIKIHRDTFLQQKAQSLTKDVQSYYVFVSSWMMKMESILSKEQRMDKFAEDLTNRCNVFIQGFLYAYSISTIIKTTMNLYMSMQKPMTKTSVKALCRLVELLKAIEHMFYRRSMVVADSVSHITQHLQHQALHSISVAKKRVISDKKYSEQRLDVLSALVLAENTLNGPSTKQRRLIVSLALSVGTQMKTFKDEELFPLQVVMKKLDLISELRERVQTQCDCCFLYWHRAVFPIYLDDVYENAVDAARLHYMFSALRDCVPAMMHARHLESYEILLDCYDKEIMEILNEHLLDKLCKEIEKDLRLSVHTHLKLDDRNPFKVGMKDLALFFSLNPIRFFNRFIDIRAYVTHYLDKTFYNLTTVALHDWATYSEMRNLATQRYGLVMTEAHLPSQTLEQGLDVLEIMRNIHIFVSRYLYNLNNQIFIERTSNNKHLNTINIRHIANSIRTHGTGIMNTTVNFTYQFLKKKFYIFSQFMYDEHIKSRLIKDIRFFREIKDQNDHKYPFDRAEKFNRGIRKLGVTPEGQSYLDQFRQLISQIGNAMGYVRMIRSGGLHCSSNAIRFVPDLEDIVNFEELVKEEGLAEETLKAARHLDSVLSDHTRNSAEGTEYFKMLVDVFAPEFRRPKNIHLRNFYIIVPPLTLNFVEHSISCKEKLNKKNKIGAAFTDDGFAMGVAYILKLLDQYREFDSLHWFQSVREKYLKEIRAVAKQQNVQSASQDEKLLQTMNLTQKRLDVYLQEFELLYFSLSSARIFFRADKTAAEENQEKKEKEEETKTSNGDLSDSTVSADPVVK [KIAA1033]”, the results for the thermal stability score with HeLa Kyoto [1] (setting [5]) and in the data set with HeLa Kyoto [1] (cell cycle stage: mitosis) were 0.475 and 0.963, respectively. Besides, the “solubility in G1/S (log2)” value with HeLa Kyoto [2] is -0.393. Besides, the “solubility change mitosis (log2)” value in the data set with HeLa Kyoto [3] was -0.0953. Also, the melting temperature in the data set with HeLa Kyoto [4] (cell cycle stage: G1/S) and with HeLa Kyoto [4] (cell cycle stage: mitosis) was 49.7 °C throughout.
